# Measured values reported in PMC6312279, “Characterization of a protozoan Phosducin-like protein-3 (PhLP-3) reveals conserved redox activity” (PLoS ONE, 2018).
# T1: PbPhLP-3 (Plasmodium berghei, UniProt A0A509AN16)
# T1 construct: gene PBANKA_1204800
# T1 sequence (A0A509AN16 1-193): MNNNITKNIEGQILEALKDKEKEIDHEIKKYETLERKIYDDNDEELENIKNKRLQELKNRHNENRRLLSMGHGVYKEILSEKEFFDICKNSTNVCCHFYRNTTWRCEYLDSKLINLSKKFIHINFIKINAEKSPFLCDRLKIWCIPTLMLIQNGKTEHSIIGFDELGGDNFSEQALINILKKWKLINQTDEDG
# T2: HsPhLP-3 (Homo sapiens, UniProt O14530)
# T2 construct: gene TXNDC9
# T2 sequence (O14530 1-226): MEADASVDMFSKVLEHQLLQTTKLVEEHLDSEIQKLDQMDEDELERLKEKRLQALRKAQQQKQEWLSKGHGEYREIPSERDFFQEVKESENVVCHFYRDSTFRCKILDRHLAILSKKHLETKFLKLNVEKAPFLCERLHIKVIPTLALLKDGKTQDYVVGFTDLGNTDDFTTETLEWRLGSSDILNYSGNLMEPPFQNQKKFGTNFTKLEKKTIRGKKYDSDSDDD
# T3: human PhLP-3 (HsPhLP-3; thioredoxin-domain containing protein 9, TXNDC9) (human) (UniProt O14530)
# T3 sequence: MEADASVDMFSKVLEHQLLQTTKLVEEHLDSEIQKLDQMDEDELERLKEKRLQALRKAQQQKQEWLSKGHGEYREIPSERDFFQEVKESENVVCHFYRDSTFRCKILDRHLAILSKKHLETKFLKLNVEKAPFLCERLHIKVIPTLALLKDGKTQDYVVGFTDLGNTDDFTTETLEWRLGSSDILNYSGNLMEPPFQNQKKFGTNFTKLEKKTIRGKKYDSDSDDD
# Legend:
# [1] = target: T1, PbPhLP-3; experiment: thioredoxin-coupled NADPH oxidation assay, […] nm; type: biochemical; details: PbTrxR/PbTrx-1/NADPH as reductant, pH 7.4, 25 °C; linear, non-saturating up to millimolar TBHP, authors suggest non-enzymatic mechanism
# [2] = target: T2, HsPhLP-3; experiment: thioredoxin-coupled NADPH oxidation assay, […] nm; type: biochemical; details: thioredoxin system/NADPH as reductant, millimolar TBHP needed; data not shown separately
# [3] = target: Plasmodium berghei Phosducin-like protein-3 (PbPhLP-3) (Plasmodium berghei)
# [4] = target: T3, human PhLP-3 (HsPhLP-3; thioredoxin-domain containing protein 9, TXNDC9) (human)
molecule,measurement,setting,value
CC(C)(C)OO [TBHP],"thioredoxin-coupled NADPH oxidation assay, 340 nm",[1],reduction of the compound was observed in the presence of PbPhLP-3
same,"thioredoxin-coupled NADPH oxidation assay, 340 nm",[2],both PhLP-3 proteins investigated here reduce the oxidative compound TBHP
Plasmodium berghei thioredoxin-1 (PbTrx-1) (natural protein),KM for PbTrx-1 in the Trx-reduction assay (initial velocities of NADPH oxidation at PbTrx-1 0.5–50 μM),[3],5.82 µM
same,Vmax in the Trx-reduction assay (initial velocities of NADPH oxidation at PbTrx-1 0.5–50 μM),[3],10.1 µM/min
same,kcat in the Trx-reduction assay (initial velocities of NADPH oxidation at PbTrx-1 0.5–50 μM),[3],0.0167 s⁻¹
same,kcat/KM (rate constant) in the Trx-reduction assay,[3],2830 M⁻¹ s⁻¹
human Trx-1 (HsTrx-1) (natural protein) MVKQIESKTAFQEALDAAGDKLVVVDFSATWCGPCKMIKPFFHSLSEKYSNVIFLEVDVDDCQDVASECEVKCMPTFQFFKKGQKVGEFSGANKEKLEATINELV,"KM in the Trx-reduction assay with PbTrxR, HsTrx-1 and HsPhLP-3",[4],6.53 µM
same,"Vmax in the Trx-reduction assay with PbTrxR, HsTrx-1 and HsPhLP-3",[4],12.6 µM/min
same,"kcat in the Trx-reduction assay with PbTrxR, HsTrx-1 and HsPhLP-3",[4],0.021 s⁻¹
same,"kcat/KM (rate constant) in the Trx-reduction assay with PbTrxR, HsTrx-1 and HsPhLP-3",[4],3170 M⁻¹ s⁻¹
